Residue numbers refer to the chain shown, from its start.
B1: A44-hv1 (antibody, V domains shown)
VH: EMTLKESGPTLVKPTQTLSLTCSVTGDSMTNGYWNWIRKFPGKALEYMGYITYSGSTYYNPSLKGRISITRNTSKNQYYLTLSSVTTVDTATYYCARWHYGSPYYFDYWGQGTTLTVSS
VL: DIKMTQSPSSLSASVGDRVTITCKASQDINSYLSWLQQKPGKSPKTLIYRANRSVDGVPSRFSGSGSGQDYSLTISSLQPEDLGIYYCLQYDEFPPTFGGGTKLEIK
notes: humanized A44, HEK293; also called LC1a x HC1a; variant 1
B2: A44-hv9 (antibody, V domains shown)
VH: QMQLQESGPGLVKPSETLSLTCTVSGDSMTNGYWNWIRQPPGKGLEYMGYITYSGSTYYNPSLKSRITISRDTSKNQYSLKLSSVTAADTAVYYCARWHYGSPYYFDYWGQGTLVTVSS
VL: B1 VL with K3Q, S43A, S72T, L73F, L83I, G84A, I85T, L104V
notes: humanized A44, HEK293; constant regions as for A44-hv1; also called LC5b x HC5b; variant 9
B3: A44-hv2 (antibody, V domains shown)
VH: B1 VH with T3Q, K5Q, T10G, T15S, Q16E, A44G, T81K, V88A
VL: B1 VL with L11V, A13V, V15P, D17Q, R18T, K42Q, P80A, E81M, L83E, E105T
notes: humanized A44, HEK293; constant regions as for A44-hv1; also called LC1b x HC1b; variant 2
B4: A44-hv4 (antibody, V domains shown)
VH: B1 VH with N31Q
VL: B1 VL
notes: humanized A44, HEK293; constant regions as for A44-hv1; also called LC1a x HC2b; variant 4
B5: A44-hv7 (antibody, V domains shown)
VH: B1 VH with E1Q, T25S, D27E, N31Q, K39Q, S68T, N72Q, D89E
VL: B1 VL with N52Q, D56E, G84A, I85T
notes: humanized A44, HEK293; constant regions as for A44-hv1; also called LC4 x HC4; variant 7
B6: A44-hv5 (antibody, V domains shown)
VH: B1 VH with N31Q
VL: B1 VL with N52Q, D56E
notes: humanized A44, HEK293; constant regions as for A44-hv1; also called LC2 x HC2b; variant 5
B7: A44-hv6 (antibody, V domains shown)
VH: B1 VH with E1Q, T25S, K39Q, S68T, N72D
VL: B1 VL with G84A, I85T
notes: humanized A44, HEK293; constant regions as for A44-hv1; also called LC3 x HC3; variant 6

target: T1, cynomolgus PAI-1 (cynomolgus monkey (Macaca fascicularis), UniProt P05121 24-402 (human entry)); assay: Biacore
T1 construct: produced in-house in E. coli (non-glycosylated); active cyno PAI-1 in the assays; also called cyno PAI-1; cPAI-1
T1 sequence (P05121 other isoform, or with tags, fused parts or gaps limits assumed): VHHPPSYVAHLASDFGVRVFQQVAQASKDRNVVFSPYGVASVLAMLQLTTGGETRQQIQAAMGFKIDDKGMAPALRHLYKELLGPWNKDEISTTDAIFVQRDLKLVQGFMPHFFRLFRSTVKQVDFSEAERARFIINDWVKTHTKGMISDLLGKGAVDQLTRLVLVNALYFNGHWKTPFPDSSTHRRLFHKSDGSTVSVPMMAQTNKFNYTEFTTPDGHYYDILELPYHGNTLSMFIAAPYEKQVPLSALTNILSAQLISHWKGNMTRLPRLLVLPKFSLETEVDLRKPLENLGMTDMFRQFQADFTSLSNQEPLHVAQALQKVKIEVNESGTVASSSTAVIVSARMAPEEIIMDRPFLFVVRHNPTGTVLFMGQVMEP

Question: Does B1 bind?
Answer: binds

Question: Does B2 bind?
Answer: binds

Question: Does B3 bind?
Answer: binds

Question: Does B4 bind?
Answer: binds

Question: Does B5 bind?
Answer: binds

Question: Does B6 bind?
Answer: binds

Question: Does B7 bind?
Answer: binds
